Measured values from patent publication US20260216242A1 (ALMAC DISCOVERY, published 2026).

Experiments:
ALPI His homodimer = biological target: T1, ALPI His homodimer (human, UniProt P09923 20-503); experiment: ELISA, antigen coated
T1 construct: Whole entry with His tag; used in ELISA and BLI; also called hALPI
T1 sequence: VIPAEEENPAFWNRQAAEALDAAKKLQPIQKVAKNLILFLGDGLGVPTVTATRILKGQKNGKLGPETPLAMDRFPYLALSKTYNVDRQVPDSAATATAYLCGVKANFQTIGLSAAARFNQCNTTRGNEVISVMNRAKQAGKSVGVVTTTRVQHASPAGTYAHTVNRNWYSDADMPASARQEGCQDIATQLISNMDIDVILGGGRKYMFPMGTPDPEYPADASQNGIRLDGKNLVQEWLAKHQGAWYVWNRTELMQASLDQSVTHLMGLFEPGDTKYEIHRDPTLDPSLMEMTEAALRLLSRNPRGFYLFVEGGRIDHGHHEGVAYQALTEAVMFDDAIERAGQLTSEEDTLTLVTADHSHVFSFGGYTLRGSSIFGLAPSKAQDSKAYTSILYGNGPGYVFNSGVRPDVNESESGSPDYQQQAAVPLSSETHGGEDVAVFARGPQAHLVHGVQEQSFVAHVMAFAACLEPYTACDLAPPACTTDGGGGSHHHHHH
Source text: ELISA was used to test the binding and specificity of the VHHs. […] Anti-Llama—HRP antibody was used for detection.

human ALPI on CHO cells [1] = biological target: T2, human ALPI on CHO cells (human, UniProt P09923 20-503); experiment: flow cytometry, CHO cells stably expressing human ALPI; His6-tagged VHH detected with anti-His tag Ab and FITC anti-mouse Ab
T2 construct: whole, on cells; also called CHO-ALPI
T2 sequence (looked up): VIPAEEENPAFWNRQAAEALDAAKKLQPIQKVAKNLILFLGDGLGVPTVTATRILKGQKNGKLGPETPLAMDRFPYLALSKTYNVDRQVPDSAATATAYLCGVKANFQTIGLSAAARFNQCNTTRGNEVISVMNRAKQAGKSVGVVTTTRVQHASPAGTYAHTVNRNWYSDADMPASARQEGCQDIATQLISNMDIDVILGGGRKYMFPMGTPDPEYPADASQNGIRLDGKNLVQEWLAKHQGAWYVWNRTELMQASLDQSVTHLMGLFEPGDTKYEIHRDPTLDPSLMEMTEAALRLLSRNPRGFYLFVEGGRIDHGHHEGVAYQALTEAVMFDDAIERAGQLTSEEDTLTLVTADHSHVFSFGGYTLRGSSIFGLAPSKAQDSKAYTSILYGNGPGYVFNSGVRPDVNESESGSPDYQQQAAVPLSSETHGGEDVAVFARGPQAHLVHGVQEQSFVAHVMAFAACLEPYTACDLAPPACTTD
Procedure: (§1) C-terminal His tagged VHH proteins were assessed for ALPP, ALPPL2, ALPI and ALPL cell-surface binding by flow cytometry. Binders encompassing different epitope bins were screened on CHO cells stably expressing ALPP, ALPPL2, ALPI or ALPL. High levels of cell-surface proteins expression were confirmed for each of the cell-lines by flow cytometry.
(§2) Cell surface binding of test agents to hALPP isoforms was characterized in four CHO-ALPP isoform stably transfected cell lines (CHO-ALPP, CHO-ALPPL2, CHO-ALPI and CHO-ALPL) and the resulting KDapp values determined. Adherent cells were detached from tissue culture flasks by incubating with 0.1% EDTA/PBS solution at 37° C. for ~10 minutes or until cells detached easily. Cells were re-suspended in ice-cold PBS/2% FCS in 15 ml tubes and centrifuged at 1700 rpm for 5 mins at 4° C. Supernatant was removed and the cell pellet re-suspended in PBS/2% FCS. […] Cells were incubated with 100 μl of test agents at a range of concentrations, plus controls for 1 hr on ice. The sample plate was centrifuged at 1700 rpm for 5 mins at 4° C. The supernatant was removed, and a wash performed by re-suspending the cell pellets in 0.25 mL of ice-cold PBS/2% FCS using a multichannel pipette. Samples were again centrifuged at 1700 rpm for 5 min at 4° C. Supernatant was removed and two further washes performed as described. After the final wash and centrifugation step, excess liquid was removed by blotting the plate on tissue paper. Binding of VHH (His6 tagged) agents was determined by adding 100 μl of anti-x6His tag Ab (Abcam) per cell pellet sample as appropriate and incubating on ice for 30 mins. Wash steps were performed as described previously. Fitc-anti-mouse antibody (ThermoFisher) was used to detect binding of the VHH (His6 tagged) agents by incubating with the appropriate samples for 30 min on ice in the dark. Wash steps were performed as described previously. All cell pellets were finally re-suspended in […] of ice-cold PBS/2% FCS and left on ice in the dark prior to analysis on a Merck-Millipore Guava EasyCyte HT or Thermo Fisher Attune N×T flow cytometer.

human ALPL on CHO cells = biological target: T3, human ALPL on CHO cells (human, UniProt P05186 18-501); experiment: flow cytometry, CHO cells stably expressing human ALPL; His6-tagged VHH detected with anti-His tag Ab and FITC anti-mouse Ab
T3 construct: whole, on cells; also called CHO-ALPL
T3 sequence (looked up): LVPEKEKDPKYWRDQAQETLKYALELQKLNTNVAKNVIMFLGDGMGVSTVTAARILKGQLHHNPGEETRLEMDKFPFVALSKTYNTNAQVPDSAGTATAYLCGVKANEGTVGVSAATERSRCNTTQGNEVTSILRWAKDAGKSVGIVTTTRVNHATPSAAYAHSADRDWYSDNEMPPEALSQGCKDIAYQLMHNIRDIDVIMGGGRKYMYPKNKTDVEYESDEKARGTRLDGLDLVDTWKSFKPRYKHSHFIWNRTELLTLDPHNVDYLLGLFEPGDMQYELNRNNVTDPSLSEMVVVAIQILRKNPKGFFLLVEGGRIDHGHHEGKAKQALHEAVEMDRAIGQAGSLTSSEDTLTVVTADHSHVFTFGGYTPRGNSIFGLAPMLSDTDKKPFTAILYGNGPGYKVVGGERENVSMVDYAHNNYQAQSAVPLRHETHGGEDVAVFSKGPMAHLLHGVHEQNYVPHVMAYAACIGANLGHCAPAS
Procedure: as §1, §2

human ALPI on CHO cells [2] = biological target: T2, human ALPI on CHO cells; experiment: flow cytometry, CHO cells, 350 nM
Procedure: as §2

human ALPP on CHO cells = biological target: T4, human ALPP on CHO cells (human, UniProt P05187 23-506); experiment: flow cytometry, CHO cells, 350 nM
T4 construct: whole, on cells; also called CHO-ALPP
Procedure: as §2

T4 sequence (P05187 23-506): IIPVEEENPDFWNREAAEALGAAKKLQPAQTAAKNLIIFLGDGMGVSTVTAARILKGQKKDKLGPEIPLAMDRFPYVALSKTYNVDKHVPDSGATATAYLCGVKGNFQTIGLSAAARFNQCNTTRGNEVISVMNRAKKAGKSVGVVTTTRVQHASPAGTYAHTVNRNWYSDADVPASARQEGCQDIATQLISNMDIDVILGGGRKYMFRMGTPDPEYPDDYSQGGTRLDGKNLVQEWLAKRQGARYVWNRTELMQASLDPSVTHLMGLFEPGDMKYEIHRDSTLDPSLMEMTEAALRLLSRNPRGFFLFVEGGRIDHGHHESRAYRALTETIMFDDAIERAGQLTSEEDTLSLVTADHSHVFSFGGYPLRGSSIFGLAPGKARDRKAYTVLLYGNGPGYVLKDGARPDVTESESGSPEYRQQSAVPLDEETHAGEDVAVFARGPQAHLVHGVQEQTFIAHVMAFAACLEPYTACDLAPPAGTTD

B1: A05 His (VHH, not shown: small tags and cut ends)
VHH: QVQLVESGGGLVQAGASLTLSCAASGFTFNTRSIVWFRQAPGKEREAVSCISKVAGSTYYGDSVQGRFSSSTDNAKNTVSLQMNSLKPEDTAVYTCAASFAPNCYGWSVAANMEYWGEGTMVTVSS
notes: also called #249
- binding result (ALPI His homodimer): no binding (tested: 500 ng VHH)
- binding result (human ALPI on CHO cells [1]): no binding (tested: 350 nM)
- binding result (human ALPL on CHO cells): no binding (tested: 350 nM)

B2: D04 His (VHH, not shown: small tags and cut ends)
VHH: QVQLVESGGGLVQPGGSLRLSCAASESTFSINVMGWYRQAPGKQRELVATITSGDITNYADSVKGRFTISRDNAENTVYLRTNSLKPEDTAVYYCNARGEYHSGNEYDYWGQGTQVTVSS
- binding result (human ALPL on CHO cells): no binding (tested: 350 nM)
- MFI (human ALPI on CHO cells [2]): 629 MFI
- MFI (human ALPP on CHO cells): 6650 MFI

B3: D10 His (VHH, not shown: small tags and cut ends)
VHH: QVQLVESGGGLVQPGGSLRLSCAASGSIFSVNTMGWYRQAPGKQRDLVAVATSGGTIHYADSVKGRFTISRDNAKNTVYLQMNSLKPEDTAVYYCNLVVPYGMIAGDHDYWGQGTKVTVSS
- binding result (ALPI His homodimer): no binding (tested: 500 ng VHH)
- binding result (human ALPI on CHO cells [1]): no binding (tested: 350 nM)
- binding result (human ALPL on CHO cells): no binding (tested: 350 nM)

B4: A06 His (VHH, not shown: small tags and cut ends)
VHH: QVHLVESGGGLVQAGGSLRLSCAASGRTFLSMGWFRQAPGKEREFVAAISWTGGSTGYADSVKGRFTISRESDKETMYLQMNSLKPEDTAVYYCAARGDVYYGGDDATRYKYWGQGTQVTVSS
notes: also called #250
- binding result (ALPI His homodimer): no binding (tested: 500 ng VHH)
- binding result (human ALPI on CHO cells [1]): no binding (tested: 350 nM)
- binding result (human ALPL on CHO cells): no binding (tested: 350 nM)

B5: E06 His (VHH, not shown: small tags and cut ends)
VHH: QVHLVESGGGLVQAGGSLRLSCAASRRSFSEYAMGWFRQAPGKEREFVAAIGWSGVIEYADSVKGRFTISRDNAKDTVYLQMNSLKPEDTAVYYCAAGLGIRVVSQTPAYWGQGTQVTVSS
- binding result (ALPI His homodimer): no binding (tested: 500 ng VHH)
- binding result (human ALPI on CHO cells [1]): no binding (tested: 350 nM)
- binding result (human ALPL on CHO cells): no binding (tested: 350 nM)

B6: C07 His (VHH, not shown: small tags and cut ends)
VHH: QVQLVESGGGLVQAGESLRLACAASGTIFSGNAVGWYRQAPEKQREWVSSITDYGDTDYAEAVKGRFTISRDNAKNTVYLQMNSLKPEDTAVYYCYVYQRGESEEYWGQGTQVTVSS
notes: also called #258
- binding result (ALPI His homodimer): no binding (tested: 500 ng VHH)
- binding result (human ALPI on CHO cells [1]): no binding (tested: 350 nM)
- binding result (human ALPL on CHO cells): no binding (tested: 350 nM)

B7: F08 His (VHH, not shown: small tags and cut ends)
VHH: QVQLVESGGGSVQAGGSLRLSCAASGPSLSNYAMGWFRQAPGKEREFVAGISWGGGRTSYTDSVKGRFTISRDNAKNTVYLQMNNLKPEDTGVYYCAGRYGRGRNVEYEYDYWGQGTQVTVSS
notes: also called #269
- binding result (human ALPL on CHO cells): no binding (tested: 350 nM)
- MFI (human ALPI on CHO cells [2]): 99 MFI
- fold lower MFI for ALPI binding versus ALPP (human ALPI on CHO cells [2]): 75 fold
- MFI (human ALPP on CHO cells): 7370 MFI

B8: E10 His (VHH, not shown: small tags and cut ends)
VHH: QVQLVESGGGLVQAGGSLRLSCAVSGRALSDYNIGWFRQAPGKEREFVARKTWDGSSTRYDDSVKGRFTVSIEDAKNTAYLQMSSLKTEDTAVYYCAAGRYSRARGWEYDYWGQGTQVTVSS
notes: also called #265
- binding result (ALPI His homodimer): no binding (tested: 500 ng VHH)
- binding result (human ALPI on CHO cells [1]): no binding (tested: 350 nM)
- binding result (human ALPL on CHO cells): no binding (tested: 350 nM)

B9: F05 His (VHH, not shown: small tags and cut ends)
VHH: QVQLVESGGGLVQAGGSLRLSCAASGRAFGDYNIGWFRQAPGKEREFVARRTWDGSSTRYDDSVKGRFTVSIDNAKNTAYLQMNSLKTEDTAVYYCAAGRYSRVRGWEYDYWGQGTQVTVSS
- binding result (ALPI His homodimer): no binding (tested: 500 ng VHH)
- binding result (human ALPI on CHO cells [1]): no binding (tested: 350 nM)
- binding result (human ALPL on CHO cells): no binding (tested: 350 nM)
